Patent US20230406912A1, “HUMANISED ANTIBODIES AGAINST PATHOGENIC FUNGI” (priority 2020, published 2023)
Positions count from the first letter of the chain named.

B1: H3/K3: humanised recombinant Ab, second approach; VH H3 (SEQ ID NO: 20), VL K3 (SEQ ID NO: 19) (antibody, V domains shown)
VH: QVQLVQSGAEVKKPGASVKVSCKASGYTLSSYWIHWVRQAPGQGLEWIGWILPGSGSTNYAQKFQGKATITADKSTSTAYMELSSLRSEDTAVYYCAREGWYFDVWGQGTLVTVSS
VL: DIVMTQTPLSLSVTPGQPASISCKSSQSLLYSNGNTHLNWYLQRPGQSPQLLIYLVSNRASGVPDRFTGSGSGTDFTLKISRVEAEDVGVYYCVQGTHFPYTFGGGTKVEIK
modifications: VH-H3; VL-K3
B2: H5 K3: humanised mAb combining heavy chain H5 (SEQ ID NO: 22) and light chain K3 (SEQ ID NO: 19) (antibody, V domains shown)
VH: QVQLQQSGAELKKPGASVKISCKASGYTLSSYWLEWVRQRPGQGLEWIGEILPGSGSTNYNEKFKGRATFTADTSTNTAYMELSSLTSEDSAVYYCAREGWYFDVWGQGTTVTVSS
VL: B1 VL
modifications: VH-H5; VL-K3
B3: H1 K1: humanised mAb, first approach CDR-grafting; VH H1 (SEQ ID NO: 16), VL K1 (SEQ ID NO: 15) (antibody, V domains shown)
VH: QVQLVQSGAEVKKPGASVKVSCKASGYTLSSYWMHWVRQAPGQGLEWMGIILPGSGSTSYAQKFQGRVTMTRDTSTSTVYMELSSLRSEDTAVYYCAREGWYFDVWGAGTTVTVSS
VL: DVVMTQSPLSLPVTLGQPASISCRSSQSLLYSNGNTHLNWFQQRPGQSPRRLIYLVSNRDSGVPDRFSGSGSGTDFTLKISRVEAEDVGVYYCVQGTHFPYTFGGGTKLEIK
modifications: VH-H1; VL-K1
B4: H3 K1: humanised mAb combining heavy chain H3 (SEQ ID NO: 20) and light chain K1 (SEQ ID NO: 15) (antibody, V domains shown)
VH: B1 VH
VL: B3 VL
modifications: VH-H3; VL-K1
B5: H5 K5: humanised mAb, third approach (Kabat); VH H5 (SEQ ID NO: 22), VL K5 (SEQ ID NO: 21) (antibody, V domains shown)
VH: B2 VH
VL: B3 VL with V2I, R24K, F41Y, N58K, R59L
modifications: VH-H5; VL-K5
B6: H6 K1: humanised mAb combining heavy chain H6 (SEQ ID NO: 24) and light chain K1 (SEQ ID NO: 15) (antibody, V domains shown)
VH: B2 VH with L34I, E35H
VL: B3 VL
modifications: VH-H6; VL-K1
B7: H5 K7: humanised mAb combining heavy chain H5 (SEQ ID NO: 22) and light chain K7 (SEQ ID NO: 25) (antibody, V domains shown)
VH: B2 VH
VL: B3 VL with V2I, R24K, F41Y, Q42L, R50K, N58K, R59L
modifications: VH-H5; VL-K7

Tests used:
C. auris [1] = assay: EUCAST antifungal MIC assay, drug alone and combined with hmAb 2G8; type: cell-based; settings: Candidozyma auris; 48 hours, drug alone; read-out: MIC50
Method: To evaluate the susceptibility of C. auris to caspofungin, amphotericin B and their combination with hmAb 2G8, we followed the EUCAST antifungal MIC method (EUCAST E.DEF. 7.3). Antifungal drugs were purchased from Sigma-Aldrich.
The caspofungin and amphotericin B range concentrations analysed were reported in EUCAST document. Those concentrations were tested alone and in combination with 0.25, 2.5, 25 and 250 μg/ml of humanised antibody.
The plates microdilution and the yeast inoculum were prepared as reported in EUCAST document. The wells with 100 μl of 2X final antifungal drugs concentration in RPMI 2% G medium were inoculated with 100 μl (1-5×10^5 CFU/ml) of yeast suspension of C. auris. The monoclonal antibody was added to the samples of yeast suspension to test the combination drug-antibody. The plates were incubated at 37° C. for 24 and 48 hours and read after incubation at 405 nm. The assays were performed in triplicate.
As reported in EUCAST, echinocandins' MIC50 is the lowest drug concentration giving inhibition of≥50% of that of the drug-free control (dotted line). For amphotericin B, MIC50 is the same as for echinocandins while MIC90 is considered as the lowest concentration giving a growth inhibition of≥90% of that of the drug-free control (dotted bold line). […] At 48 hours (D), amphotericin B alone has its MIC50 and 90 at 1 μg/ml.

C. auris [2] = assay: Time-kill curve, drug alone and combined with hmAb 2G8; type: cell-based
From the text: To support and deepen the data coming from MIC assays, a time-kill curve was elaborated to evaluate how the hmAb 2G8 combined with caspofungin or amphotericin B could improve their basal activity on C. auris.

C. auris [3] = settings: different C. auris strains, literature; cited from earlier work
[4] = ELISA assay on laminarin-coated plates; type: binding; settings: for activity in ELISA test: recombinant antibody, laminarin-coated plates; for Abs 405 nm: ELISA of supernatants of humanised mAbs
Method: The activity of the purified antibody was then tested by ELISA assay. 96-well plates were coated with 50 μg/ml Laminarin (Sigma-Aldrich, L9634) in 0.05 M carbonate buffer pH 9.6 overnight at 4° C. Nonspecific interactions were blocked with 100 μL/well blocking solution, 3% (w/v) BSA in PBS-Tween 20 (8 g/L NaCl, 0.2 g/L KH2PO4, 2.9 g/L Na2HPO4·12 H2O, 0.2 g/L KCI, 0.05% (v/v) Tween 20, pH 7.4) at 37° C. for 1 h. The plates were then incubated with decreasing concentrations of hmAb 2G8_first approach (comparative purpose) (from 3.12 μg/ml to 0.003 μg/ml, each concentration was tested in triplicate) in blocking solution for 2 h at 37° C. At the same temperature and for the same time, 100 μL Goat anti-human-HRP diluted 1:1000 in blocking solution was poured in each well. After every single passage the plates were washed 5 times with PBS-Tween 20. To reveal the binding, 100 μl of 5 mg-ABTS tablet (Roche Diagnostics) dissolved in 12 ml of sodium citrate (0.05 M, pH 3) and supplemented with 1:1000 dilution hydrogen peroxide (Carlo Erba) was added and after 15, 30, 45 and 60 min the absorbance at 405 nm was measured. For the whole measuring time the plates were left in the dark. IC50 analysis of ELISA test was performed with Prism. The TEST was performed in triplicate.
The surnatants collected from the obtained humanised mAb were tested in ELISA test.
Four supernatants from hmAb according to the invention (H5/K3; H5/K1; H5/K7; H5/K5) were purified to confirm the data. 8 scalar dilutions, starting from 5 μg/ml, were tested.
The purified humanised mAb 2G8 H5/K1 was then tested in an ELISA assay using laminarin as a target.

Molecule	activity in ELISA test [4]	Abs 405 nm [4]	further results
CC[C@H](C)C[C@H](C)CCCCCCCCC(=O)N[C@H]1C[C@@H](O)[C@@H](NCCN)NC(=O)[C@@H]2[C@@H](O)CCN2C(=O)[C@H]([C@H](O)CCN)NC(=O)[C@H]([C@H](O)[C@@H](O)c2ccc(O)cc2)NC(=O)[C@@H]2C[C@@H](O)CN2C(=O)[C@H]([C@@H](C)O)NC1=O [caspofungin]			MIC50 (C. auris [1]): 0.25 µg/mL; fungistatic effect, log (time-kill curve) (C. auris [2]; CAS 0.125 μg/ml, 24 h): −1.88; fungistatic effect, log (time-kill curve) (C. auris [2]; CAS 0.125 μg/ml, 48 h): −2.10; fungistatic effect, log (time-kill curve) (C. auris [2]; CAS 0.25 μg/ml, 24 h, combination with 250 μg/ml hmAb 2G8 H5K1): −1.11; fungistatic effect, log (time-kill curve) (C. auris [2]; CAS 0.25 μg/ml, 48 h, combination with 250 μg/ml hmAb 2G8 H5K1): −1.71
C[C@@H](c1ncncc1F)[C@](O)(Cn1cncn1)c1ccc(F)cc1F [voriconazole]			MIC (C. auris [3]): about 16 mg/L
B1	not active		
B2		2.47	
B3	not active	0.35	
B4		0.4	
B5	showed some activity	1.61	activity / affinity compared with murine 2G8 ([4]; ELISA): lower than the activity observed for the murine 2G8
B6		0.27	
B7		0.82	
